Data taken from PMC2111050, “Human RECQ1 Is a DNA Damage Responsive Protein Required for Genotoxic Stress Resistance and Suppression of Sister Chromatid Exchanges” (PLoS ONE, 2007).

Biological target: T1, Recombinant human RECQ1 helicase (human, UniProt P46063 1-649)
T1 construct: RECQ1 (RECQL) helicase, human; the gene encodes a 649 amino acid protein of 73 kDa; also called RECQL
T1 sequence (looked up): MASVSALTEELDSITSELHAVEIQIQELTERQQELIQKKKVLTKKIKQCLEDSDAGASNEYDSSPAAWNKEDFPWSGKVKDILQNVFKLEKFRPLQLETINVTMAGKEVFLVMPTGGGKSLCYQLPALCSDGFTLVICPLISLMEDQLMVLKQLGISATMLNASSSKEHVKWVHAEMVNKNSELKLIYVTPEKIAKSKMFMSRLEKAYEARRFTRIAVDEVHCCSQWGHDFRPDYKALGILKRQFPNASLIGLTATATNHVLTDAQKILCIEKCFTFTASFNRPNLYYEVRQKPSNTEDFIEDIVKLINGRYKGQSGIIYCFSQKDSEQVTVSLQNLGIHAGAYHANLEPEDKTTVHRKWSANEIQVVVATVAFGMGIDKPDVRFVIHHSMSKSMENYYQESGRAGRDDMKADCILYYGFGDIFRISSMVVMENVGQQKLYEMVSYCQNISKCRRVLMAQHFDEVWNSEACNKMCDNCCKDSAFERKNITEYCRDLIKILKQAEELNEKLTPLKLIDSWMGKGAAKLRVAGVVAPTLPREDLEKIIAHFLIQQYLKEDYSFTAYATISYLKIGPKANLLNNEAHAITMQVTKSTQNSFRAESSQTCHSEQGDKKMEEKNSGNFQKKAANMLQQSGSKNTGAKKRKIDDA
Experiment: ELISA; RECQ1 (14 nM; 1 ng/µl, 50 µl) or BSA coated on wells in carbonate buffer pH 9.6; Rad51 0-76 nM in PBS, 0.5% Tween-20, 3% BSA, 1 h at 30°C; detected with rabbit anti-Rad51; Scatchard analysis, apparent Kd; similar signal with DNaseI (100 U/ml) or EtBr (50 µg/ml)
Conditions: both partners purified

Kd: 11.9 ± 2.1 nM
B1: Purified recombinant human Rad51 (natural protein, UniProt Q06609 1-339, looked up)
chain: MAMQMQLEANADTSVEEESFGPQPISRLEQCGINANDVKKLEEAGFHTVEAVAYAPKKELINIKGISEAKADKILAEAAKLVPMGFTTATEFHQRRSEIIQITTGSKELDKLLQGGIETGSITEMFGEFRTGKTQICHTLAVTCQLPIDRGGGEGKAMYIDTEGTFRPERLLAVAERYGLSGSDVLDNVAYARAFNTDHQTQLLYQASAMMVESRYALLIVDSATALYRTDYSGRGELSARQMHLARFLRMLLRLADEFGVAVVITNQVVAQVDGAAMFAADPKKPIGGNIIAHASTTRLYLRKGRGETRICKIYDSPCLPEAEAMFAINADGVGDAKD
notes: Rad51 strand exchange protein, human; source: provided by Dr. Ian Hickson (Cancer Research UK Laboratories); purified recombinant
